{"source": "patent US20180155451A1", "about": "(published 2018)", "binders": {"B1": {"name": "GpH7-A5/GpH7-B3 variant Q295_04F/GpL16-k0 (antibody, human IgG1, kappa)", "heavy 1": "not shown", "heavy 2": "not shown", "light": "DIVMTQSPLSLPVTPGEPASISCQASESLVHSNRNTYLHWYLQKPGQSPQLLIYKVSNRFSGVPDRFSGSGSGTDFTLKISRVEAEDVGVYYCSQNTHVPPTFGQGTKVEIERTVAAPSVFIFPPSDEQLKSGTASVVCLLNNFYPREAKVQWKVDNALQSGNSQESVTEQDSKDSTYSLSSTLTLSKADYEKHKVYACEVTHQGLSSPVTKSFNRGEC", "notes": "mutation in one H chain only; also called He Ab Q295_04F; Q295F"}, "B2": {"name": "GpH7-A5/GpH7-B3 variant Q295_14T/GpL16-k0 (antibody, human IgG1, kappa)", "heavy 1": "not shown", "heavy 2": "not shown", "light": "B1 light", "notes": "mutation in one H chain only; also called He Ab Q295_14T; Q295T"}, "B3": {"name": "GpH7-A5/GpH7-B3 variant Q295_07I/GpL16-k0 (antibody, human IgG1, kappa)", "heavy 1": "not shown", "heavy 2": "not shown", "light": "B1 light", "notes": "mutation in one H chain only; also called He Ab Q295_07I; Q295I"}, "B4": {"name": "GpH7-A5/GpH7-B3 variant P271_14T/GpL16-k0 (antibody, human IgG1, kappa)", "heavy 1": "not shown", "heavy 2": "not shown", "light": "B1 light", "notes": "mutation in one H chain only; also called He Ab P271_14T; P271T"}, "B5": {"name": "GpH7-A5/GpH7-B3 variant P329_01G/GpL16-k0 (antibody, human IgG1, kappa)", "heavy 1": "not shown", "heavy 2": "not shown", "light": "B1 light", "notes": "mutation in one H chain only; also called He Ab P329_01G; P329G"}, "B6": {"name": "GpH7-A5/GpH7-B3 variant P271_16H/GpL16-k0 (antibody, human IgG1, kappa)", "heavy 1": "not shown", "heavy 2": "not shown", "light": "B1 light", "notes": "mutation in one H chain only; also called He Ab P271_16H; P271H"}, "B7": {"name": "GpH7-A5/GpH7-B3 variant Q295_08L/GpL16-k0 (antibody, human IgG1, kappa)", "heavy 1": "not shown", "heavy 2": "not shown", "light": "B1 light", "notes": "mutation in one H chain only; also called He Ab Q295_08L; Q295L"}, "B8": {"name": "GpH7-B3 variant Q295_09D/GpL16-k0 (antibody, human IgG1, kappa)", "heavy": "not shown", "light": "B1 light", "notes": "mutation in both H chains; also called Ho Ab Q295_09D; Q295D"}, "B9": {"name": "GpH7-B3 variant Q295_11K/GpL16-k0 (antibody, human IgG1, kappa)", "heavy": "not shown", "light": "B1 light", "notes": "mutation in both H chains; also called Ho Ab Q295_11K; Q295K"}, "B10": {"name": "GpH7-B3 variant P271_14T/GpL16-k0 (antibody, human IgG1, kappa)", "heavy": "not shown", "light": "B1 light", "notes": "mutation in both H chains; also called Ho Ab P271_14T; P271T"}, "B11": {"name": "GpH7-B3 variant P271_16H/GpL16-k0 (antibody, human IgG1, kappa)", "heavy": "not shown", "light": "B1 light", "notes": "mutation in both H chains; also called Ho Ab P271_16H; P271H"}, "B12": {"name": "GpH7-B3 variant Q295_04F/GpL16-k0 (antibody, human IgG1, kappa)", "heavy": "not shown", "light": "B1 light", "notes": "mutation in both H chains; also called Ho Ab Q295_04F; Q295F"}, "B13": {"name": "GpH7-B3 variant P329_01G/GpL16-k0 (antibody, human IgG1, kappa)", "heavy": "not shown", "light": "B1 light", "notes": "mutation in both H chains; also called Ho Ab P329_01G; P329G"}, "B14": {"name": "GpH7-B3 variant Q295_13S/GpL16-k0 (antibody, human IgG1, kappa)", "heavy": "not shown", "light": "B1 light", "notes": "mutation in both H chains; also called Ho Ab Q295_13S; Q295S"}, "B15": {"name": "GpH7-B3 variant Q295_16H/GpL16-k0 (antibody, human IgG1, kappa)", "heavy": "not shown", "light": "B1 light", "notes": "mutation in both H chains; also called Ho Ab Q295_16H; Q295H"}, "B16": {"name": "GpH7-B3 variant Q295_15Y/GpL16-k0 (antibody, human IgG1, kappa)", "heavy": "not shown", "light": "B1 light", "notes": "mutation in both H chains; also called Ho Ab Q295_15Y; Q295Y"}, "B17": {"name": "GpH7-B3 variant Q295_03V/GpL16-k0 (antibody, human IgG1, kappa)", "heavy": "not shown", "light": "B1 light", "notes": "mutation in both H chains; also called Ho Ab Q295_03V; Q295V"}, "B18": {"name": "GpH7-B3 variant Q295_08L/GpL16-k0 (antibody, human IgG1, kappa)", "heavy": "not shown", "light": "B1 light", "notes": "mutation in both H chains; also called Ho Ab Q295_08L; Q295L"}, "B19": {"name": "GpH7-B3 variant Q295_18N/GpL16-k0 (antibody, human IgG1, kappa)", "heavy": "not shown", "light": "B1 light", "notes": "mutation in both H chains; also called Ho Ab Q295_18N; Q295N"}, "B20": {"name": "GpH7-B3 variant Q295_05P/GpL16-k0 (antibody, human IgG1, kappa)", "heavy": "not shown", "light": "B1 light", "notes": "mutation in both H chains; also called Ho Ab Q295_05P; Q295P"}, "B21": {"name": "GpH7-B3 variant Q295_14T/GpL16-k0 (antibody, human IgG1, kappa)", "heavy": "not shown", "light": "B1 light", "notes": "mutation in both H chains; also called Ho Ab Q295_14T; Q295T"}, "B22": {"name": "GpH7-B3 variant S239_01G/GpL16-k0 (antibody, human IgG1, kappa)", "heavy": "not shown", "light": "B1 light", "notes": "mutation in both H chains; also called Ho Ab S239_01G; S239G"}, "B23": {"name": "GpH7-B3 variant P271_15Y/GpL16-k0 (antibody, human IgG1, kappa)", "heavy": "not shown", "light": "B1 light", "notes": "mutation in both H chains; also called Ho Ab P271_15Y; P271Y"}, "B24": {"name": "GpH7-B3 variant P329_02A/GpL16-k0 (antibody, human IgG1, kappa)", "heavy": "not shown", "light": "B1 light", "notes": "mutation in both H chains; also called Ho Ab P329_02A; P329A"}, "B25": {"name": "GpH7-B3 variant Q295_07I/GpL16-k0 (antibody, human IgG1, kappa)", "heavy": "not shown", "light": "B1 light", "notes": "mutation in both H chains; also called Ho Ab Q295_07I; Q295I"}}, "data": [{"biological_target": "T1, FcγRIa extracellular domain with C-terminal His tag (human, UniProt P12314 16-292)", "T1 construct": "extracellular domain; also called FcgRI; CD64; not shown: His tag at the C terminus", "T1 sequence (P12314 16-292)": "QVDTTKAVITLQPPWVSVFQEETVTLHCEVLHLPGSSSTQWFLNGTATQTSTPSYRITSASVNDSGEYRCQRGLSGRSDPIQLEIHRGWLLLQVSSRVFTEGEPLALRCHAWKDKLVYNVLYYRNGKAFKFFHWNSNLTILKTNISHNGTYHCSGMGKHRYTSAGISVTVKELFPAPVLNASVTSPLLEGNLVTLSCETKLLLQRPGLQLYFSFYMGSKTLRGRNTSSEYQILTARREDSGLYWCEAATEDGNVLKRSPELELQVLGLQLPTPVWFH", "experiment": "SPR Biacore, relative FcγRIa binding vs GpH7-A5/GpH7-B3/GpL16-k0", "values": [{"binder": "B1", "He/Con_1a": "102 % of HeCon Ab (=100)"}, {"binder": "B2", "He/Con_1a": "103 % of HeCon Ab (=100)"}, {"binder": "B3", "He/Con_1a": "103 % of HeCon Ab (=100)"}, {"binder": "B4", "He/Con_1a": "102 % of HeCon Ab (=100)"}, {"binder": "B5", "He/Con_1a": "101 % of HeCon Ab (=100)"}, {"binder": "B6", "He/Con_1a": "102 % of HeCon Ab (=100)"}, {"binder": "B7", "He/Con_1a": "105 % of HeCon Ab (=100)"}]}, {"biological_target": "T1, FcγRIa extracellular domain with …", "experiment": "SPR Biacore, relative FcγRIa binding vs GpH7-B3/GpL16-k0", "values": [{"binder": "B8", "Ho/Con_1a": "96.8 % of HoCon Ab (=100)"}, {"binder": "B9", "Ho/Con_1a": "99.9 % of HoCon Ab (=100)"}, {"binder": "B10", "Ho/Con_1a": "99.5 % of HoCon Ab (=100)"}, {"binder": "B11", "Ho/Con_1a": "99.4 % of HoCon Ab (=100)"}, {"binder": "B12", "Ho/Con_1a": "100 % of HoCon Ab (=100)"}, {"binder": "B13", "Ho/Con_1a": "89.5 % of HoCon Ab (=100)"}, {"binder": "B14", "Ho/Con_1a": "101 % of HoCon Ab (=100)"}, {"binder": "B15", "Ho/Con_1a": "99.1 % of HoCon Ab (=100)"}, {"binder": "B16", "Ho/Con_1a": "97 % of HoCon Ab (=100)"}, {"binder": "B17", "Ho/Con_1a": "102 % of HoCon Ab (=100)"}, {"binder": "B18", "Ho/Con_1a": "103 % of HoCon Ab (=100)"}, {"binder": "B19", "Ho/Con_1a": "101 % of HoCon Ab (=100)"}, {"binder": "B20", "Ho/Con_1a": "101 % of HoCon Ab (=100)"}, {"binder": "B21", "Ho/Con_1a": "102 % of HoCon Ab (=100)"}, {"binder": "B22", "Ho/Con_1a": "101 % of HoCon Ab (=100)"}, {"binder": "B23", "Ho/Con_1a": "99.4 % of HoCon Ab (=100)"}, {"binder": "B24", "Ho/Con_1a": "98.2 % of HoCon Ab (=100)"}, {"binder": "B25", "Ho/Con_1a": "101 % of HoCon Ab (=100)"}]}]}
